Laboratory results as given in US7811578B2, “Soluble chimeric peptide inhibitors of HIV entry comprising an IZ trimeric coiled-coil peptide and HIV gp41 N-helix coiled-coil peptide” (Whitehead Institute for Biomedical Research, dated 2010).

B1: IQN23 version 2 (designed binder)
chain: Ac-RMKQIEDKIEEIESKQKKIENEIARIKKLIEAQQHLLQLTVWGIKQLQARIL-NH2

Legend:
[1] = target: gp160 (precursor protein to gp120/gp41) on CHO cells (HIV, strain not stated)
[2] = target: HIV gp41 on HIV modified to contain a luciferase reporter gene (HIV, strain not stated)
[3] = target: HIV-1 HXB2 gp41 (from the HXB2 gp160 gene), on single-round luciferase virus (HIV-1 (HXB2)) (UniProt P04578)
[4] = target: HIV-1 HXB2 gp41 (from the HXB2 gp160 gene), on single-round luciferase virus (HIV-1 (HXB2), UniProt P04578); test: cell-based or functional assay

Molecule	IC50 (nm), viral infectivity (HIV luciferase assay) [4] [nM]	further results
IQN17 (designed binder)		IC50, inhibition of syncytia formation (cell/cell fusion, β-galactosidase) [1]: 20 to 80 nM; IC50, inhibition of luciferase activity (viral fusion experiment) [2]: 250 nM
IQN17 (G572D) (designed binder)		IC50 (nm), viral infectivity (HIV luciferase assay) [3]: 20000 nM
GCN4-pIQI (peptide)		inhibition of luciferase activity (viral fusion experiment) [2]: > 10 µM
Ac-KIEEIESKIKKIENEIARIKKLLQLTVWGIKQLQARIL-NH2 (designed binder) [II22N17]	~170	
Ac-KIEEIESKQKKIENEIARIKKLLQLTVWGIKQLQARIL-NH2 (designed binder) [IQ22N17]	~1000	
B1	~30	
Ac-RMKQIEDKIEEIESKQKKIENEIARIKKLLQLTVWGIKQLQARIL-NH2 (designed binder) [IQN17]	~180	
Ac-IKKEIEAIKKEQEAIKKKIEAIEKLLQLTVWGIKQLQARIL-NH2 (designed binder) [IZN17]	5.6	
Ac-LLQLTVWGIKQLQARIL-NH2 [N17]	~10000	
Ac-KQKKIENEIARIKKLLQLTVWGIKQLQARIL-NH2 (designed binder) [IQ15N17]	~10000	
Ac-KIKKIENEIARIKKLLQLTVWGIKQLQARIL-NH2 (designed binder) [II15N17]	~3000	
